Eight molecules from article PMC2064741 (The Journal of Cell Biology, 2007) can be followed below.

The data set “AUC” deals with the molecule itself. The data set is described as follows: AUC.
The target of data set [1] is T1, Fmn2-FH2 (formin-2 residues 1,124-1,567) ( (printed as m-Fmn2, …, UniProt Q9JL04 1135-1578)). The data set is described as follows: fluorescence polarisation. On the technique in general: Fluorescence polarisation rises when a labelled molecule tumbles more slowly, as on binding a larger partner.
T1 sequence (Q9JL04 1135-1578): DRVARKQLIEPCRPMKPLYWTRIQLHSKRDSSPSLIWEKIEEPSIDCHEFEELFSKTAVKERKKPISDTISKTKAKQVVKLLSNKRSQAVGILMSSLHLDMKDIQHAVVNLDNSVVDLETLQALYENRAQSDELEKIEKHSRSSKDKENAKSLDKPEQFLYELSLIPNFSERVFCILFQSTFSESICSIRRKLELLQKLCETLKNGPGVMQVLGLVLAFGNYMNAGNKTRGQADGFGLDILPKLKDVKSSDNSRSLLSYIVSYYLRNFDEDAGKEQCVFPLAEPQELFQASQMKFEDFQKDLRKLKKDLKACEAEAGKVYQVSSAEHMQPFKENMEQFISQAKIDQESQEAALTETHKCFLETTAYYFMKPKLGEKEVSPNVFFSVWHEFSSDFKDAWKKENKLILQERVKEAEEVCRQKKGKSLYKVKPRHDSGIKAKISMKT
In data set [2] the target is T1, Fmn2-FH2 (formin-2 residues 1,124-1,567). The experiment in a line: inhibition of formin-driven pyrene-actin assembly.
Data set [3] deals with T2, Capu-FH1FH2 (Drosophila Capu residues 467-1,058) (Drosophila, UniProt Q24120 467-1058).
T2 sequence: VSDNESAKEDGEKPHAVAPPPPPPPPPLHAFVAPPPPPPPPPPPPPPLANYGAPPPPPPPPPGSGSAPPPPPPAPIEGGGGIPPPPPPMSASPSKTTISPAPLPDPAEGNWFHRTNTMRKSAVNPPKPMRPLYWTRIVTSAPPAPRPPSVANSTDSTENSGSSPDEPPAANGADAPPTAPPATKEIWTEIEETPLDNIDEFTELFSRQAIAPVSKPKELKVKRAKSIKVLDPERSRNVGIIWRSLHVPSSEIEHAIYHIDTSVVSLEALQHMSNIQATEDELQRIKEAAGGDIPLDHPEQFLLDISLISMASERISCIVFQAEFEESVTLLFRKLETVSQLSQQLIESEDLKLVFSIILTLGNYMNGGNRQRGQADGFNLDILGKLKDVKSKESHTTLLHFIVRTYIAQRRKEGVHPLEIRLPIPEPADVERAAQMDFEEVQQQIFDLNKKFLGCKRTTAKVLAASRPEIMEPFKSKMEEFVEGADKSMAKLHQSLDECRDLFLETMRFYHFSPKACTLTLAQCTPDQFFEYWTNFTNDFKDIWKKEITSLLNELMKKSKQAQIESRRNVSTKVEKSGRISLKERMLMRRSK
The experiment in a line: co-sedimentation.

Data set [4] has as its target T2, Capu-FH1FH2 (Drosophila Capu residues …). The data set is described as follows: fluorescence polarisation.
The target in data set [5] is T3, Capu-FH2 (Drosophila Capu residues 573-1,058) (Drosophila, UniProt Q24120 573-1058).
T3 sequence: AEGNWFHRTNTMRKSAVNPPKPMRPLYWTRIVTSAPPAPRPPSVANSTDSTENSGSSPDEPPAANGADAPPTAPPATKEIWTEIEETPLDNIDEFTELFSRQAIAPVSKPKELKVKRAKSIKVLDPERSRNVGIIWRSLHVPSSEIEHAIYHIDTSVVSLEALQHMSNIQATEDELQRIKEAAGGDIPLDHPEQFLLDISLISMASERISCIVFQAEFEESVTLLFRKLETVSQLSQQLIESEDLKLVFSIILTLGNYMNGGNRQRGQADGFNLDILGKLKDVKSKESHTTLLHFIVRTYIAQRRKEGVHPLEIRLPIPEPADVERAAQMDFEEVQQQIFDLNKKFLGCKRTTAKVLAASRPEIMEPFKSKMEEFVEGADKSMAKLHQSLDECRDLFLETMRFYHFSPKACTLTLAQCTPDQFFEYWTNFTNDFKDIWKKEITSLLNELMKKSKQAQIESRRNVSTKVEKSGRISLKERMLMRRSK
The experiment in a line: inhibition of formin-driven pyrene-actin assembly.

In data set [6] the target is T3, Capu-FH2 (Drosophila Capu residues …). The experiment in a line: fluorescence polarisation.
The target in data set [7] is T2, Capu-FH1FH2 (Drosophila Capu residues …). The data set is described as follows: fluorescence polarisation. This is another data set of the same source.
Data set [8] has as its target phalloidin-stabilized actin filaments. The data set is described as follows: co-sedimentation.
Data set [9] has the same target. The experiment in a line: co-sedimentation. This is another data set of the same source.
Data set [10] has as its target T2, Capu-FH1FH2 (Drosophila Capu residues …). The data set is described as follows: other fluorescence titration.

Where two headings read alike, the source gives them in different places.

B1: AlexaFluor488-labeled Capu-FH1FH2 with C-terminal Lys-Cys-Lys (domain or fragment)
chain: VSDNESAKEDGEKPHAVAPPPPPPPPPLHAFVAPPPPPPPPPPPPPPLANYGAPPPPPPPPPGSGSAPPPPPPAPIEGGGGIPPPPPPMSASPSKTTISPAPLPDPAEGNWFHRTNTMRKSAVNPPKPMRPLYWTRIVTSAPPAPRPPSVANSTDSTENSGSSPDEPPAANGADAPPTAPPATKEIWTEIEETPLDNIDEFTELFSRQAIAPVSKPKELKVKRAKSIKVLDPERSRNVGIIWRSLHVPSSEIEHAIYHIDTSVVSLEALQHMSNIQATEDELQRIKEAAGGDIPLDHPEQFLLDISLISMASERISCIVFQAEFEESVTLLFRKLETVSQLSQQLIESEDLKLVFSIILTLGNYMNGGNRQRGQADGFNLDILGKLKDVKSKESHTTLLHFIVRTYIAQRRKEGVHPLEIRLPIPEPADVERAAQMDFEEVQQQIFDLNKKFLGCKRTTAKVLAASRPEIMEPFKSKMEEFVEGADKSMAKLHQSLDECRDLFLETMRFYHFSPKACTLTLAQCTPDQFFEYWTNFTNDFKDIWKKEITSLLNELMKKSKQAQIESRRNVSTKVEKSGRISLKERMLMRRSKKCK
modifications: AlexaFluor488-maleimide on the cysteine of the C-terminal Lys-Cys-Lys (~100% labeled)
For B1, the “stoichiometry N” value in the data set “AUC” turned out to be 2.

B2: AlexaFluor488-labeled Spir-1–KIND (human Spir-1 residues 2-271) (domain or fragment)
chain: AQAAGPAGGGEPRTEAVGGEGPREPGAAGGAAGGSRDALSLEEILRLYNQPINEEQAWAVCYQCCGSLRAAARRRQPRHRVRSAAQIRVWRDGAVTLAPAADDAGEPPPVAGKLGYSQCMETEVIESLGIIIYKALDYGLKENEERELSPPLEQLIDHMANTVEADGSNDEGYEAAEEGLGDEDEKRKISAIRSYRDVMKLCAAHLPTESDAPNHYQAVCRALFAETMELHTFLTKIKSAKENLKKIQEMEKSDESSTDLEELKNADWAR
In the case of B2, binding in data set [1] was characterised by a dissociation constant (Kd) of 300 ± 60 nM.

B3: Spir-1–KIND (human Spir-1 residues 2-271), unlabeled (domain or fragment)
chain: B2 chain
Molecule B3 gave a Ki in data set [2] of 190 ± 40 nM.

B4: NTSpir (Drosophila Spir residues 1-520) (domain or fragment)
chain: MTEHQAEEQADTPPTKVKATPTPTPSGKFKDAKEDAFLSTSPDSANGDAQHKLPADQLAMSSSAHPQQAGQARPLILQAFHRCSSPEQCVTLHDILDSFKAPLSEDQAWALIHQFAGLYHQVAVQAHTCAADYEAALPTGFELHFHRDGSVHFSGPDQLTPKEQLQQEQIPLPPQHDVIVDQPDHSASSSGDSSVINRAFDNSNHHHHHQHHHPPLVVSHRKIISELAEIVYTALDYNLPEDEECQVSQELENLFNFMTADETDDDCIDEGIDEGDKRWDDESEEERNDTKELEHIIETCRNHIKTTLPENHYRAVCRALVTETIELRVFLQQVLNNEAGAEKLIKASESSATTQQELAKLGFNDWARFWVQVIDELRRGVRLKKSNHERTPIEYELTPYEILMGDIRAKKYQLRKVMVNGDIPPRVKKDAHAMILEFIRSRPPLKKASDRQLGPPRMCEPSPREQLMESIRKGKELKQITPPEAPTLRERVLPSANSTLSRSRQRLIKVDFSKFQDDDL
Regarding B4, in data set [3], the binding result is “binds”.

B5: KIND (Drosophila Spir residues 1-327), unlabeled (domain or fragment)
chain: MTEHQAEEQADTPPTKVKATPTPTPSGKFKDAKEDAFLSTSPDSANGDAQHKLPADQLAMSSSAHPQQAGQARPLILQAFHRCSSPEQCVTLHDILDSFKAPLSEDQAWALIHQFAGLYHQVAVQAHTCAADYEAALPTGFELHFHRDGSVHFSGPDQLTPKEQLQQEQIPLPPQHDVIVDQPDHSASSSGDSSVINRAFDNSNHHHHHQHHHPPLVVSHRKIISELAEIVYTALDYNLPEDEECQVSQELENLFNFMTADETDDDCIDEGIDEGDKRWDDESEEERNDTKELEHIIETCRNHIKTTLPENHYRAVCRALVTETIEL
As to B5, the Kd in data set [4] came out at 5 ± 3 nM. In addition, in data set [5], affinity was put at a Ki of 5 ± 1 nM.

B6: AlexaFluor488-labeled KIND (Drosophila Spir residues 1-327) (domain or fragment)
chain: B5 chain
In the case of B6, the values for the Kd in data set [6] and in data set [7] were 9 ± 6 nM and 1 ± 2 nM, respectively.

B7: Capu-FH1FH2 (Drosophila Capu residues 467-1,058) (domain or fragment)
chain: T2 sequence
With B7, the Kd came out at 6 nM in data set [8] and 7 nM in [9].

B8: AlexaFluor488-labeled WH2 cluster, KCK-WH2(C459S) (Drosophila Spir residues 366-482) (domain or fragment)
chain: KCKWARFWVQVIDELRRGVRLKKSNHERTPIEYELTPYEILMGDIRAKKYQLRKVMVNGDIPPRVKKDAHAMILEFIRSRPPLKKASDRQLGPPRMSEPSPREQLMESIRKGKELKQITP
modifications: AlexaFluor488-maleimide on the cysteine of the N-terminal Lys-Cys-Lys (~100% labeled)
For the molecule B8, the Kd in data set [10] amounted to 2400 ± 900 nM.

What is called stoichiometry N is the number of molecules, sites or subunits per partner or assembly. For orientation: Kd means a measure of binding affinity in units of concentration. The Ki is a dissociation constant, usually derived from enzyme kinetics or from competition with a known ligand. A lower Ki goes with a stronger hold on the target.
